Test [1] addresses EV-D68 mature virion, strain US/MO/14-18947 (clade B) (enterovirus D68 strain US/MO/14-18947).
The target is the same in test [2]. Nature of the test: BLI. Background: Biolayer interferometry detects binding as a change in optical thickness at a sensor tip.

In test [1], “anti-EV-D68 MAb 8F12 (murine, IgG2b) (antibody)” yielded an IC50 of neutralization of EV-D68 strain 18947 on RD cells (cell viability, CellTiter-Glo) of 4 ng/mL and a neutralization concentration (lowest antibody concentration that fully inhibits cytopathic effect) against strain 18947 of 0.06 µg/mL.
As a reminder, the Kd is the concentration at which binding is half-saturated. The term koff denotes the rate constant with which the complex falls apart. Lower therefore signals a long-lived complex. In test [2], “anti-EV-D68 MAb 8F12 (murine, IgG2b) (from UniProt P01867)” returned a Kd of 0.92 nM and an off-rate constant (koff) of 0.00035 s⁻¹.
